Data set [1] deals with the molecule itself. The data set can be described thus: cross-linking.
Data set [2] concerns the molecule itself. The data set can be described thus: GTP hydrolysis assay.
Data set [3] concerns the molecule itself. The data set can be described thus: light scattering-based polymerization assay.

B1: GBP1 D199K, non-farnesylated (natural protein)
chain: MASEIHMTGPMCLIENTNGRLMANPEALKILSAITQPMVVVAIVGLYRTGKSYLMNKLAGKKKGFSLGSTVQSHTKGIWMWCVPHPKKPGHILVLLDTEGLGDVEKGDNQNDSWIFALAVLLSSTFVYNSIGTINQQAMDQLYYVTELTHRIRSKSSPDENENEVEDSADFVSFFPDFVWTLRDFSLDLEADGQPLTPKEYLTYSLKLKKGTSQKDETFNLPRLCIRKFFPKKKCFVFDRPVHRRKLAQLEKLQDEELDPEFVQQVADFCSYIFSNSKTKTLSGGIQVNGPRLESLVLTYVNAISSGDLPCMENAVLALAQIENSAAVQKAIAHYEQQMGQKVQLPTETLQELLDLHRDSEREAIEVFIRSSFKDVDHLFQKELAAQLEKKRDDFCKQNQEASSDRCSALLQVIFSPLEEEVKAGIYSKPGGYRLFVQKLQDLKKKYYEEPRKGIQAEEILQTYLKSKESMTDAILQTDQTLTEKEKEIEVERVKAESAQASAKMLQEMQRKNEQMMEQKERSYQEHLKQLTEKMENDRVQLLKEQERTLALKLQEQEQLLKEGFQKESRIMKNEIQDLQTKMRRRKACTIS
Regarding B1, the binding result in data set [1] is reported as “binds”.

B2: GBP1 D199A, non-farnesylated (natural protein)
chain: MASEIHMTGPMCLIENTNGRLMANPEALKILSAITQPMVVVAIVGLYRTGKSYLMNKLAGKKKGFSLGSTVQSHTKGIWMWCVPHPKKPGHILVLLDTEGLGDVEKGDNQNDSWIFALAVLLSSTFVYNSIGTINQQAMDQLYYVTELTHRIRSKSSPDENENEVEDSADFVSFFPDFVWTLRDFSLDLEADGQPLTPAEYLTYSLKLKKGTSQKDETFNLPRLCIRKFFPKKKCFVFDRPVHRRKLAQLEKLQDEELDPEFVQQVADFCSYIFSNSKTKTLSGGIQVNGPRLESLVLTYVNAISSGDLPCMENAVLALAQIENSAAVQKAIAHYEQQMGQKVQLPTETLQELLDLHRDSEREAIEVFIRSSFKDVDHLFQKELAAQLEKKRDDFCKQNQEASSDRCSALLQVIFSPLEEEVKAGIYSKPGGYRLFVQKLQDLKKKYYEEPRKGIQAEEILQTYLKSKESMTDAILQTDQTLTEKEKEIEVERVKAESAQASAKMLQEMQRKNEQMMEQKERSYQEHLKQLTEKMENDRVQLLKEQERTLALKLQEQEQLLKEGFQKESRIMKNEIQDLQTKMRRRKACTIS
Turning to B2, the binding result in data set [1] is listed as “binds”.

B3: GBP1 D199K, farnesylated (natural protein)
chain: MASEIHMTGPMCLIENTNGRLMANPEALKILSAITQPMVVVAIVGLYRTGKSYLMNKLAGKKKGFSLGSTVQSHTKGIWMWCVPHPKKPGHILVLLDTEGLGDVEKGDNQNDSWIFALAVLLSSTFVYNSIGTINQQAMDQLYYVTELTHRIRSKSSPDENENEVEDSADFVSFFPDFVWTLRDFSLDLEADGQPLTPKEYLTYSLKLKKGTSQKDETFNLPRLCIRKFFPKKKCFVFDRPVHRRKLAQLEKLQDEELDPEFVQQVADFCSYIFSNSKTKTLSGGIQVNGPRLESLVLTYVNAISSGDLPCMENAVLALAQIENSAAVQKAIAHYEQQMGQKVQLPTETLQELLDLHRDSEREAIEVFIRSSFKDVDHLFQKELAAQLEKKRDDFCKQNQEASSDRCSALLQVIFSPLEEEVKAGIYSKPGGYRLFVQKLQDLKKKYYEEPRKGIQAEEILQTYLKSKESMTDAILQTDQTLTEKEKEIEVERVKAESAQASAKMLQEMQRKNEQMMEQKERSYQEHLKQLTEKMENDRVQLLKEQERTLALKLQEQEQLLKEGFQKESRIMKNEIQDLQTKMRRRKACTIS
modifications: farnesyl moiety, C-terminal (CaaX box motif)
In the case of B3, the binding result in data set [1] is on record as “binds”.

B4: GBP1 D199A, farnesylated (natural protein)
chain: MASEIHMTGPMCLIENTNGRLMANPEALKILSAITQPMVVVAIVGLYRTGKSYLMNKLAGKKKGFSLGSTVQSHTKGIWMWCVPHPKKPGHILVLLDTEGLGDVEKGDNQNDSWIFALAVLLSSTFVYNSIGTINQQAMDQLYYVTELTHRIRSKSSPDENENEVEDSADFVSFFPDFVWTLRDFSLDLEADGQPLTPAEYLTYSLKLKKGTSQKDETFNLPRLCIRKFFPKKKCFVFDRPVHRRKLAQLEKLQDEELDPEFVQQVADFCSYIFSNSKTKTLSGGIQVNGPRLESLVLTYVNAISSGDLPCMENAVLALAQIENSAAVQKAIAHYEQQMGQKVQLPTETLQELLDLHRDSEREAIEVFIRSSFKDVDHLFQKELAAQLEKKRDDFCKQNQEASSDRCSALLQVIFSPLEEEVKAGIYSKPGGYRLFVQKLQDLKKKYYEEPRKGIQAEEILQTYLKSKESMTDAILQTDQTLTEKEKEIEVERVKAESAQASAKMLQEMQRKNEQMMEQKERSYQEHLKQLTEKMENDRVQLLKEQERTLALKLQEQEQLLKEGFQKESRIMKNEIQDLQTKMRRRKACTIS
modifications: farnesyl moiety, C-terminal (CaaX box motif)
B4: the binding result in data set [1] is recorded as “binds”.

B5: GBP1 Δ207-213 variant, non-farnesylated (natural protein)
chain: MASEIHMTGPMCLIENTNGRLMANPEALKILSAITQPMVVVAIVGLYRTGKSYLMNKLAGKKKGFSLGSTVQSHTKGIWMWCVPHPKKPGHILVLLDTEGLGDVEKGDNQNDSWIFALAVLLSSTFVYNSIGTINQQAMDQLYYVTELTHRIRSKSSPDENENEVEDSADFVSFFPDFVWTLRDFSLDLEADGQPLTPDEYLTYSLGGGSGGGSQKDETFNLPRLCIRKFFPKKKCFVFDRPVHRRKLAQLEKLQDEELDPEFVQQVADFCSYIFSNSKTKTLSGGIQVNGPRLESLVLTYVNAISSGDLPCMENAVLALAQIENSAAVQKAIAHYEQQMGQKVQLPTETLQELLDLHRDSEREAIEVFIRSSFKDVDHLFQKELAAQLEKKRDDFCKQNQEASSDRCSALLQVIFSPLEEEVKAGIYSKPGGYRLFVQKLQDLKKKYYEEPRKGIQAEEILQTYLKSKESMTDAILQTDQTLTEKEKEIEVERVKAESAQASAKMLQEMQRKNEQMMEQKERSYQEHLKQLTEKMENDRVQLLKEQERTLALKLQEQEQLLKEGFQKESRIMKNEIQDLQTKMRRRKACTIS
As usually defined, the stoichiometry N is the number of molecules, sites or subunits per partner or assembly. Turning to B5, the “fold lower dimerization affinity than wild-type” value in data set [2] worked out at 3 fold. In addition, the “stoichiometry N” value in data set [1] is 2.

B6: GBP1 Δ207-213 variant, farnesylated (natural protein)
chain: MASEIHMTGPMCLIENTNGRLMANPEALKILSAITQPMVVVAIVGLYRTGKSYLMNKLAGKKKGFSLGSTVQSHTKGIWMWCVPHPKKPGHILVLLDTEGLGDVEKGDNQNDSWIFALAVLLSSTFVYNSIGTINQQAMDQLYYVTELTHRIRSKSSPDENENEVEDSADFVSFFPDFVWTLRDFSLDLEADGQPLTPDEYLTYSLGGGSGGGSQKDETFNLPRLCIRKFFPKKKCFVFDRPVHRRKLAQLEKLQDEELDPEFVQQVADFCSYIFSNSKTKTLSGGIQVNGPRLESLVLTYVNAISSGDLPCMENAVLALAQIENSAAVQKAIAHYEQQMGQKVQLPTETLQELLDLHRDSEREAIEVFIRSSFKDVDHLFQKELAAQLEKKRDDFCKQNQEASSDRCSALLQVIFSPLEEEVKAGIYSKPGGYRLFVQKLQDLKKKYYEEPRKGIQAEEILQTYLKSKESMTDAILQTDQTLTEKEKEIEVERVKAESAQASAKMLQEMQRKNEQMMEQKERSYQEHLKQLTEKMENDRVQLLKEQERTLALKLQEQEQLLKEGFQKESRIMKNEIQDLQTKMRRRKACTIS
modifications: farnesyl moiety, C-terminal (CaaX box motif)
On to B6, for which the binding result in data set [3] is “binds”.

B7: GBP1 Δ207-216 variant, farnesylated (natural protein)
chain: MASEIHMTGPMCLIENTNGRLMANPEALKILSAITQPMVVVAIVGLYRTGKSYLMNKLAGKKKGFSLGSTVQSHTKGIWMWCVPHPKKPGHILVLLDTEGLGDVEKGDNQNDSWIFALAVLLSSTFVYNSIGTINQQAMDQLYYVTELTHRIRSKSSPDENENEVEDSADFVSFFPDFVWTLRDFSLDLEADGQPLTPDEYLTYSLGGGSETFNLPRLCIRKFFPKKKCFVFDRPVHRRKLAQLEKLQDEELDPEFVQQVADFCSYIFSNSKTKTLSGGIQVNGPRLESLVLTYVNAISSGDLPCMENAVLALAQIENSAAVQKAIAHYEQQMGQKVQLPTETLQELLDLHRDSEREAIEVFIRSSFKDVDHLFQKELAAQLEKKRDDFCKQNQEASSDRCSALLQVIFSPLEEEVKAGIYSKPGGYRLFVQKLQDLKKKYYEEPRKGIQAEEILQTYLKSKESMTDAILQTDQTLTEKEKEIEVERVKAESAQASAKMLQEMQRKNEQMMEQKERSYQEHLKQLTEKMENDRVQLLKEQERTLALKLQEQEQLLKEGFQKESRIMKNEIQDLQTKMRRRKACTIS
modifications: farnesyl moiety, C-terminal (CaaX box motif)
Turning to B7, the binding result in data set [3] is “binds”.

B8: GBP1 Δ207-216 variant, non-farnesylated (natural protein)
chain: MASEIHMTGPMCLIENTNGRLMANPEALKILSAITQPMVVVAIVGLYRTGKSYLMNKLAGKKKGFSLGSTVQSHTKGIWMWCVPHPKKPGHILVLLDTEGLGDVEKGDNQNDSWIFALAVLLSSTFVYNSIGTINQQAMDQLYYVTELTHRIRSKSSPDENENEVEDSADFVSFFPDFVWTLRDFSLDLEADGQPLTPDEYLTYSLGGGSETFNLPRLCIRKFFPKKKCFVFDRPVHRRKLAQLEKLQDEELDPEFVQQVADFCSYIFSNSKTKTLSGGIQVNGPRLESLVLTYVNAISSGDLPCMENAVLALAQIENSAAVQKAIAHYEQQMGQKVQLPTETLQELLDLHRDSEREAIEVFIRSSFKDVDHLFQKELAAQLEKKRDDFCKQNQEASSDRCSALLQVIFSPLEEEVKAGIYSKPGGYRLFVQKLQDLKKKYYEEPRKGIQAEEILQTYLKSKESMTDAILQTDQTLTEKEKEIEVERVKAESAQASAKMLQEMQRKNEQMMEQKERSYQEHLKQLTEKMENDRVQLLKEQERTLALKLQEQEQLLKEGFQKESRIMKNEIQDLQTKMRRRKACTIS
For the protein B8, the “fold lower dimerization affinity than wild-type” value in data set [2] was found to be 1.8 fold. Besides, the “stoichiometry N” value in data set [1] was found to be 2.

For the origin of these results see doi:10.1101/2023.08.01.551421 (bioRxiv, 2023).
